Residue numbers refer to the chain shown, from its start.
B1: Cmpd 9 (other)
chain: MGSLAEAKEAANAELDSYGVSDFYKRLIDKAKTVEGVEALKDAILAALPTGGGGSGGGSGGGSGGGSASPIQRVQDDTKTLIKTIITRINDISPPQGVSSRPRVAGLDFIPRVQSVRTLSGMDQILATYQQILTSLQSRNVIQISNDLENLRDLLHVLAFSKSCPVPRARGSDTIKGLGNVLRASVHSTEVVALSRLKAALQDMLRQLDRNPGC
B2: Cmpd 64 (other)
chain: MLAEAKEAANAELDSYGVSDFYKRLIDKAKTVEGVEALKDAILAALPTGGGGSGGGSGGGSGGGSASPIQRVQDDTKTLIKTIITRINDISPPQGVSSRPRVAGLDFIPRVQSVRTLSGMDQILATYQQILTSLQSRNVIQISNDLENLRDLLHVLAFSKSCPVPRARGSDTIKGLGNVLRASVHSTEVVALSRLKAALQDMLRQLDRNPGC
B3: Cmpd 68 (other)
chain: MLAEAKEAANAELDSYGVSDFYKRLIDKAKTVEGVEALKDAILAALPTGGGGSGGGSGGGSGGGSASVPIQKVQDDTKTLIKTIVTRINDISHTQSVSSKQKVTGLEFIPGLHPILTLSKMDQTLAVYQQILTSMPSRNVIQISNDLENLRDLLHVLAFSKSCHLPQASGLETLESLGGVLEASGYSTEVVALSRLQGSLQDMLQQLDLSPGC
B4: Cmpd 1 (other)
chain: MGSLAEAKEAANAELDSYGVSDFYKRLIDKAKTVEGVEALKDAILAALPTGGGGASVPIQKVQDDTKTLIKTIVTRINDISHTQSVSSKQKVTGLEFIPGLHPILTLSKMDQTLAVYQQILTSMPSRNVIQISNDLENLRDLLHVLAFSKSCHLPQASGLETLESLGGVLEASGYSTEVVALSRLQGSLQDMLQQLDLSPGC
B5: Cmpd 70 (other)
chain: MGSLAEAKVLANRELDKYGVSDFYKRLIDKAKTVEGVEALKDAILAALPTGGEGGEGGEGGEGGEGGEASVPIQKVQDDTKTLIKTIVTRINDISHTQSVSSKQKVTGLEFIPGLHPILTLSKMDQTLAVYQQILTSMPSRNVIQISNDLENLRDLLHVLAFSKSCHLPQASGLETLESLGGVLEASGYSTEVVALSRLQGSLQDMLQQLDLSPGC
B6: PEP07986-negative linker-A500 (Compound 12) (other)
chain: B5 chain with V9E, L10A, R13A, K17S
notes: also called Cmpd 12; PEP07986-Negative-A500
B7: Cmpd 69 (other)
chain: B5 chain with D29E, D42E
B8: Cmpd 71 (other)
chain: MLAEAKEAANAELDSYGVSDFYKRLIDKAKTVEGVEALKDAILAALPTGGGGSGGGSGGGSGGGSASPIQRVQDDTKTLIKTIITRINDISHTQSVSSKQKVTGLDFIPGLHPILTLSGMDQILATYQQILTSLQSRNVIQISNDLENLRDLLHVLAFSKSCPVPRARGSDTIKGLGNVLRASVHSTEVVALSRLKAALQDMLRQLDRNPGC
B9: PEP07986-neutral linker-A500 (Compound 2) (other)
chain: MGSLAEAKEAANAELDSYGVSDFYKRLIDKAKTVEGVEALKDAILAALPTGGGGSGGGSGGGSGGGSASVPIQKVQDDTKTLIKTIVTRINDISHTQSVSSKQKVTGLEFIPGLHPILTLSKMDQTLAVYQQILTSMPSRNVIQISNDLENLRDLLHVLAFSKSCHLPQASGLETLESLGGVLEASGYSTEVVALSRLQGSLQDMLQQLDLSPGC
notes: also called Cmpd 2; PEP07986-Neutral-A500
B10: Cmpd 63 (printed with SEQ ID NO: 659 in Table X4) (other)
chain: B9 chain with H166S, G181E, M205I, G214E
B11: Cmpd 55 (other)
chain: B9 chain with E9V, A10L, A13R, S17K
B12: Cmpd 48 (other)
chain: B9 chain with A13R, S17A
B13: Cmpd 41 (other)
chain: B9 chain with E6Q, A13R

Target: T1, chimeric Hu-Leptin/Mu-EPO receptor (human; mouse, UniProt P48357 22-839; P14753 250-507)
T1 sequence (looked up): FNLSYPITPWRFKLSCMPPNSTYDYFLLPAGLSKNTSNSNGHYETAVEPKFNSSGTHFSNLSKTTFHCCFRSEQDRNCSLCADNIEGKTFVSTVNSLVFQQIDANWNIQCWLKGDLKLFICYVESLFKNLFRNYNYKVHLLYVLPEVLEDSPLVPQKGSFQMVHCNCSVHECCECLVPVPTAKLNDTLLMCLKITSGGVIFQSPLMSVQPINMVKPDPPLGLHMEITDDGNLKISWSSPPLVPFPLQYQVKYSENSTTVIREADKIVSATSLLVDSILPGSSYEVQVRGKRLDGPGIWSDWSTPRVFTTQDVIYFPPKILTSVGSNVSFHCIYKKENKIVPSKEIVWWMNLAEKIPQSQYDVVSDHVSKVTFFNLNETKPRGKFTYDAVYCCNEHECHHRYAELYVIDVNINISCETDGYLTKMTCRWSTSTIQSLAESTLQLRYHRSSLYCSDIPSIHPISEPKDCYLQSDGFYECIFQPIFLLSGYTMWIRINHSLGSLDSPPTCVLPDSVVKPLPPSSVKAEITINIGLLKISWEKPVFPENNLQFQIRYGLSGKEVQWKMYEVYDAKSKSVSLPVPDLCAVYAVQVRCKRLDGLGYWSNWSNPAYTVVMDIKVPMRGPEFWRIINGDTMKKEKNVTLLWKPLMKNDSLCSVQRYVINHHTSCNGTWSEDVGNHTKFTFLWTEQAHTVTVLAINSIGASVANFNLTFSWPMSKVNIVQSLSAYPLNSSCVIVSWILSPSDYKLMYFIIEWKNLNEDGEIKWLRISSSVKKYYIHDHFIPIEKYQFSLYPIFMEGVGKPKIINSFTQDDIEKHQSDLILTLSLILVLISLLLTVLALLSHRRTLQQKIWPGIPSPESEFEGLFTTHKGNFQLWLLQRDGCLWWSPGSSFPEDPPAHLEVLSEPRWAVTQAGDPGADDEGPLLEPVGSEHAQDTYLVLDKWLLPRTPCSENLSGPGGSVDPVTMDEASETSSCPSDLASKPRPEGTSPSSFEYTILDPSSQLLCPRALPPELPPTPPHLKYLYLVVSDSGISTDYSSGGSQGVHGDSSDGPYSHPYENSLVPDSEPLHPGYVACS
Assay: cell-based or functional assay

| Binder | EC50 nM (Obeca STAT5 assay) |
| --- | --- |
| B1 | 0.433 nM |
| B2 | 0.634 nM |
| B3 | 0.71 nM |
| B4 | 0.908 nM |
| B5 | 0.941 nM |
| B6 | 0.947 nM |
| B7 | 0.832 nM |
| B8 | 1.26 nM |
| B9 | 0.725 nM |
| B10 | 0.785 nM |
| B11 | 0.639 nM |
| B12 | 0.553 nM |
| B13 | 0.506 nM |

Target: T2, Rat SA (rat, UniProt P02770 25-608)
T2 construct: also called rat serum albumin
Assay: SPR (BioRad ProteOn XPR36), albumin amine-coupled on GLC chip, polypeptide injected from 5 nM in 3-fold dilutions, 25 C; relative KD
Description: (§1) All studies were conducted on a BioRad ProteOn XPR36 system using a GLC sensor chip at 25 degrees C. For amine coupling the GLC chip was activated for 5 minutes using a 1:1 mixture of sulfo-NHS/EDC diluted 30-fold from the initial stock in water as shown below. Each albumin sample was diluted to 25 ug/ml in 10 mM Na Acetate pH 5.0 and injected for 5 minutes over separate sensor surfaces. Each surface was then blocked with 1 M ethanolamine pH 8.5. Each albumin was coupled at a density of 2000-5000 in resonance units.
(§2) The binding of an engineered polypeptide was tested using 5 nM as the highest concentration in a three-fold dilution series. The running buffer contained 10 mM HEPES pH 7.4, 150 mM NaCl, 3 mM EDTA and 0.005% tween-20. All samples were tested using a 3-fold dilution series. Each concentration series was tested in duplicate. The dissociation phase for the highest concentration […] was monitored for 3 hours.

T2 sequence (P02770 25-608 limits assumed): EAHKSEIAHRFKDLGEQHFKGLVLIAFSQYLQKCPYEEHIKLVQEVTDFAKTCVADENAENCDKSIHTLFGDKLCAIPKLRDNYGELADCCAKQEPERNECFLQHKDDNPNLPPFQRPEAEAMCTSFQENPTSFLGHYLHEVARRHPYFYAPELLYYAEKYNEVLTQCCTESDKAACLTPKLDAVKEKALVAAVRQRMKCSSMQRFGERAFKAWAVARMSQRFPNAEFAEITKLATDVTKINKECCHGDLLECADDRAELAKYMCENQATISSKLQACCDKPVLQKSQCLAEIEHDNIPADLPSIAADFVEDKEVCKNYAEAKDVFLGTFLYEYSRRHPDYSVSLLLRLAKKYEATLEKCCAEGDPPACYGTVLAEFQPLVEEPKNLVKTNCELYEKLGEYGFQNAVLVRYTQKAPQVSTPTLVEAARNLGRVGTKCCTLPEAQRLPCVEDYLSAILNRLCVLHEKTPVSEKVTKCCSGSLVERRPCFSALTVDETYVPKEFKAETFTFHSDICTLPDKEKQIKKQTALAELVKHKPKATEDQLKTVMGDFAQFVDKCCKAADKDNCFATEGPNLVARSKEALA

| Binder | Kd |
| --- | --- |
| B6 | 0.01 nM |
| B9 | 0.023 nM |

Target: T3, Monkey SA (monkey)
T3 construct: also called monkey serum albumin
Assay: as above
Description: as §1, §2

T3 sequence (A2V9Z4 25-608): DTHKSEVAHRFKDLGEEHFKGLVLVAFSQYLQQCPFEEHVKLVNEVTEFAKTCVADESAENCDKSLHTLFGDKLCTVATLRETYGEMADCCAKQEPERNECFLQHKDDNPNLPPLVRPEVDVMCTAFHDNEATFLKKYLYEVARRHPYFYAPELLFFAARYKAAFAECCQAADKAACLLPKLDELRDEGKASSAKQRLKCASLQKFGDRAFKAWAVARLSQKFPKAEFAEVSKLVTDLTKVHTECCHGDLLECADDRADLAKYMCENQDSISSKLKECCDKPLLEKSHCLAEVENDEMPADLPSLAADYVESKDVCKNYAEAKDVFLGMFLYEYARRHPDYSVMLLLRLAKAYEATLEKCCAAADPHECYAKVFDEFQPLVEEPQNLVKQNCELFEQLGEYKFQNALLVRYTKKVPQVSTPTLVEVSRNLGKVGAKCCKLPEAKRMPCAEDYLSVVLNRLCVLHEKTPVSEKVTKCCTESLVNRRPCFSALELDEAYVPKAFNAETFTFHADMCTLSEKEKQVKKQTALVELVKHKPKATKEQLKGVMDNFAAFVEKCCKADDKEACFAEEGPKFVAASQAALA

| Binder | Kd |
| --- | --- |
| B6 | 0.4 nM |
| B9 | 0.405 nM |

Target: T4, Dog SA (dog, UniProt P49822 25-608)
T4 construct: also called dog serum albumin
Assay: as above
Description: as §1, §2

T4 sequence (P49822 25-608 limits assumed): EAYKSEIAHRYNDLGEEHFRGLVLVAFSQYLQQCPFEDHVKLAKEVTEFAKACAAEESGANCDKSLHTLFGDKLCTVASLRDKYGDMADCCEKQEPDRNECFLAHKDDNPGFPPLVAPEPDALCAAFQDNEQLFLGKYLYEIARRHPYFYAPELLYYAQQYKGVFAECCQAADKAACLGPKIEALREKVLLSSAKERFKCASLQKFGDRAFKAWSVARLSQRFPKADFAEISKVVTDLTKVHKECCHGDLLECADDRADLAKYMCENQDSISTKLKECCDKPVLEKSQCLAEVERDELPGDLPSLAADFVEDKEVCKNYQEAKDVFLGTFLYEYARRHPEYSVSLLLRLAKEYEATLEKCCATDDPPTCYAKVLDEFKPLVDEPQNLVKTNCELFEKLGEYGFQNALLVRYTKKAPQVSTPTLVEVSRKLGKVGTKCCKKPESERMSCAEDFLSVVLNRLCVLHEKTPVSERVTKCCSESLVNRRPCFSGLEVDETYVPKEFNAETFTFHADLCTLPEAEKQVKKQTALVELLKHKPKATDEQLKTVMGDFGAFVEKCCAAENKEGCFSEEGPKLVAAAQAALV

| Binder | Kd |
| --- | --- |
| B6 | 1.81 nM |
| B9 | 1.31 nM |

Target: T5, Mouse SA (mouse, UniProt P07724 25-608)
T5 construct: also called mouse serum albumin
Assay: as above
Description: as §1, §2

| Binder | Kd |
| --- | --- |
| B6 | 1.94 nM |
| B9 | 1.66 nM |

Target: T6, human serum albumin (human, UniProt P02768 25-609)
T6 construct: also called HSA; Albucult (Novozyme)
Assay: as above
Description: as §1, §2

T6 sequence (P02768 25-609 limits assumed): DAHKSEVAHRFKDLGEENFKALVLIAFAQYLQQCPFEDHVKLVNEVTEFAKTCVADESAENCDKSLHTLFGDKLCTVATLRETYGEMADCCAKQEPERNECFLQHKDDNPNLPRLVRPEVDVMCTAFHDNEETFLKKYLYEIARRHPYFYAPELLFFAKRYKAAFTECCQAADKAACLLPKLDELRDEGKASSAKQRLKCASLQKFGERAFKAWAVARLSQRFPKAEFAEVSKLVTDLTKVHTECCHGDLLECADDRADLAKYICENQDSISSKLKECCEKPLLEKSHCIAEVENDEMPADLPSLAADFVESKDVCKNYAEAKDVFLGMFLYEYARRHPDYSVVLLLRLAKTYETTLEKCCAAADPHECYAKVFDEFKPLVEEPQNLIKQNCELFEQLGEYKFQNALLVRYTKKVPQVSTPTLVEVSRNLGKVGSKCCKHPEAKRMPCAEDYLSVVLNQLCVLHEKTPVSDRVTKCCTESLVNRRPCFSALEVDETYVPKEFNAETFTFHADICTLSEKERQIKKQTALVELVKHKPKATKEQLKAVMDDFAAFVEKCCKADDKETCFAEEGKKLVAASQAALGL

| Binder | Kd |
| --- | --- |
| B6 | 0.27 nM |
| B9 | 0.152 nM |

— US20140256621A1 (published 2014)
